In the RNAGym collection of RNA variant scans (doi:10.1021/acssynbio.7b00057):

B1: Pistol ribozyme (parent)
chain: GGGUCGUUGUUCCAUAAUCGCGUGGAUAUGGCACGCAAGUUUCUACCGGGCACCGUAAAUGUCCGACUGGAGCCGUUCGGGCGGCUAUAAACAGACCUCAGGCCCGAAGCGUGGCGGCACCUGCCGCCGGUGGUAAAAAAGAUCGGAAGAGCACACGUCU

Variants of: B1
Assay: aptazyme ON/OFF ratio, guanine; higher = stronger switching; co-transcriptional cleavage with and without guanine

Variant | aptazyme ON/OFF ratio
U7G U8A G9C C12A | 1.02
U7G U8A G9C C12U | 1.04
U7G U8A G9C C12G | 1.01
U7G U8A G9C U11G C12G | 1.04
U7G U8A G9C U11G C12A | 1.03
U7G U8A G9C U11G C12U | 1.14
U7G U8A G9C U10C U11C C12U | 1.03
U7G U8A G9C U10C U11C C12G | 1.03
U7G U8A G9C U10C U11C C12A | 1.04
U7G U8A G9U C12G C13A | 1.11
U7G U8A G9U C12G C13G | 1.07
U7G U8A G9U C12G C13U | 1.17
U7G U8A G9C U10G U11C C12G C13U | 1.03
U7G U8A G9C U10G U11C C12G C13G | 1.03
U7G U8A G9C U10G U11C C12G C13A | 1.03
U7G U8A G9C U11C C12G | 1.05
U7G U8A G9C U11C C12U | 1.11
U7G U8A G9C U11C C12A | 1.11
U7G U8A G9C U10A U11C C12G | 1.05
U7G U8A G9C U10A U11C C12U | 1.04
U7G U8A G9C U10A U11C C12A | 1.05

Variant | aptazyme ON/OFF ratio
U7G U8A G9C U10A U11A C13U | 1.04
U7G U8A G9C U10A U11A C13G | 1.04
U7G U8A G9C U10A U11A C13A | 1.05
U7G U8A G9C U10A C12A C13A | 1.05
U7G U8A G9C U10A C12A C13G | 1.01
U7G U8A G9C U10A C12A C13U | 1.06
U7G U8A G9C U11A C12A | 1.03
U7G U8A G9C U11A C12G | 1.04
U7G U8A G9C U11A C12U | 1.03
U7G U8A G9C U10C U11G C12U C13G | 1.03
U7G U8A G9C U10C U11G C12U C13A | 1.05
U7G U8A G9C U10C U11G C12U C13U | 1.04
U7G U8A G9C U10G U11G C12A C13G | 1.03
U7G U8A G9C U10G U11G C12A C13A | 1.05
U7G U8A G9C U10G U11G C12A C13U | 1.03
U7G U8A G9U C12A | 1.06
U7G U8A G9U C12G | 1.1
U7G U8A G9U C12U | 1.18
U7G U8A G9U U10A C12A C13U | 1.06
U7G U8A G9U U10A C12A C13A | 1.04
U7G U8A G9U U10A C12A C13G | 1.06

Variant | aptazyme ON/OFF ratio
U7G U8A G9C U10A C13A | 1.03
U7G U8A G9C U10A C13G | 1.01
U7G U8A G9C U10A C13U | 1.02
U7G U8A G9C U10C U11A C13G | 1.06
U7G U8A G9C U10C U11A C13A | 1.1
U7G U8A G9C U10C U11A C13U | 1.1
U7G U8A G9U U10A U11A C12U C13G | 1.07
U7G U8A G9U U10A U11A C12U C13A | 1.07
U7G U8A G9U U10A U11A C12U C13U | 1.06
U7G U8A G9C U11A C12A C13G | 1.05
U7G U8A G9C U11A C12A C13A | 1.01
U7G U8A G9C U11A C12A C13U | 1.04
U7G U8A G9U C12A C13U | 1.1
U7G U8A G9U C12A C13G | 1.05
U7G U8A G9U C12A C13A | 1.1
U7G U8A G9C U10C U11A C12A C13G | 1.02
U7G U8A G9C U10C U11A C12A C13A | 1.01
U7G U8A G9C U10C U11A C12A C13U | 1.03
U7G U8A G9C U10G U11C | 1.03
U7G U8A G9C U10G U11A | 1.04
U7G U8A G9C U10G U11G | 1.14

Variant | aptazyme ON/OFF ratio
U7G U8A G9C C12U C13U | 1.03
U7G U8A G9C C12U C13G | 1.06
U7G U8A G9C C12U C13A | 1.06
U7G U8A G9A U11G C12U C13G | 1.2
U7G U8A G9A U11G C12U C13A | 1.22
U7G U8A G9A U11G C12U C13U | 1.45
U7G U8A G9C U10C C12U C13A | 1.04
U7G U8A G9C U10C C12U C13U | 1.01
U7G U8A G9C U10C C12U C13G | 1.01
U7G U8A G9C U11G C12A C13U | 1.06
U7G U8A G9C U11G C12A C13A | 1.05
U7G U8A G9C U11G C12A C13G | 1.06
U7G U8A G9A U11G C13G | 1.03
U7G U8A G9A U11G C13A | 1.13
U7G U8A G9A U11G C13U | 1.21
U7G U8A G9C U10A U11G | 1.05
U7G U8A G9C U10A U11C | 1.06
U7G U8A G9C U10A U11A | 1.09
U7G U8A G9U U10A U11A C13A | 1.13
U7G U8A G9U U10A U11A C13G | 1.02
U7G U8A G9U U10A U11A C13U | 1.07
